Source: patent US11549123B2, “Plant EPSP synthases and methods of use” (PIONEER HI-BRED INTERNATIONAL, INC., priority 2015, dated 2023)

Columns and labels:
Settings in all cases: other: PEP varied; pH 7.0
[1] = substrate: C=C(OP(=O)(O)O)C(=O)O; assay: EPSPS substrate saturation kinetics, maize variant 103V 107G; type: biochemical, Zea mays
Method: (§1) EPSPS activity was determined by quantifying the phosphate generated from the EPSPS reaction. Release of inorganic phosphate was coupled to reaction with 2-amino-6-mercapto-7-methylpurine ribonucleoside, catalyzed by purine-nucleoside phosphorylase (M R Webb, Proc. Natl. Acad. Sci. 89:4884-4887, 1992). The absorbance change that occurs was monitored at 360 nm, where the extinction is 11,200 M^−1 cm^−1, with a Spectramax plate reader (Molecular Devices). To determine kinetic parameters, the varied substrate was present at seven concentrations (the eighth being the blank, containing no substrate) ranging from 4 to 400 uM and the unvaried substrate present at saturation. […] Reactions were monitored with a Spectramax plate reader. […] KI was then calculated from the following form of the Michaelis-Menten equation for competitive inhibition: KI=KM[I]/(KM app−KM) KM approximates the dissociation constant of the enzyme-substrate complex while kcat is the rate of conversion of substrate to product when the substrate concentration is saturating. kcat/KM is a widely accepted parameter for catalytic efficiency when substrate concentration is low (˜KM). […] The parameter kcat/KM×KI is used to quantify both catalytic efficiency and insensitivity and thus the overall fitness of the enzyme. […]

[2] = substrate: C=C(OP(=O)(O)O)C(=O)O; assay: EPSPS substrate saturation kinetics, maize variant 103S 107N; type: biochemical, Zea mays
Method: as §1

[3] = substrate: C=C(OP(=O)(O)O)C(=O)O; assay: EPSPS substrate saturation kinetics, maize variant 103L 107T; type: biochemical, Zea mays
Method: as §1

[4] = substrate: C=C(OP(=O)(O)O)C(=O)O; assay: EPSPS substrate saturation kinetics, maize variant 103L 107A; type: biochemical, Zea mays
Method: as §1

[5] = substrate: C=C(OP(=O)(O)O)C(=O)O; assay: EPSPS substrate saturation kinetics, maize variant 103G 107W (EPSPS-TGPW); type: biochemical
Method: as §1

B1: Zea mays EPSPS variant V-G at positions 103-107 (Zea mays; P106G/T102V) (protein)
chain: MAGAEEIVLQPIKEISGTVKLPGSKSLSNRILLLAALSEGTTVVDNLLNSEDVHYMLGALRTLGLSVEADKAAKRAVVVGCGGKFPVEDAKEEVQLFLGNAGVAMRGLTAAVTAAGGNATYVLDGVPRMRERPIGDLVVGLKQLGADVDCFLGTDCPPVRVNGIGGLPGGKVKLSGSISSQYLSALLMAAPLALGDVEIEIIDKLISIPYVEMTLRLMERFGVKAEHSDSWDRFYIKGGQKYKSPKNAYVEGDASSASYFLAGAAITGGTVTVEGCGTTSLQGDVKFAEVLEMMGAKVTWTETSVTVTGPPREPFGRKHLKAIDVNMNKMPDVAMTLAVVALFADGPTAIRDVASWRVKETERMVAIRTELTKLGASVEEGPDYCIITPPEKLNVTAIDTYDDHRMAMAFSLAACAEVPVTIRDPGCTRKTFPDYFDVLSTFVKN
**Q.** B1 was tested. Which Km [1] did it give?
**A.** The Km was 133 µM.

B2: Zea mays EPSPS variant S-N at positions 103-107 (Zea mays; P106N/T102S) (protein)
chain: MAGAEEIVLQPIKEISGTVKLPGSKSLSNRILLLAALSEGTTVVDNLLNSEDVHYMLGALRTLGLSVEADKAAKRAVVVGCGGKFPVEDAKEEVQLFLGNAGSAMRNLTAAVTAAGGNATYVLDGVPRMRERPIGDLVVGLKQLGADVDCFLGTDCPPVRVNGIGGLPGGKVKLSGSISSQYLSALLMAAPLALGDVEIEIIDKLISIPYVEMTLRLMERFGVKAEHSDSWDRFYIKGGQKYKSPKNAYVEGDASSASYFLAGAAITGGTVTVEGCGTTSLQGDVKFAEVLEMMGAKVTWTETSVTVTGPPREPFGRKHLKAIDVNMNKMPDVAMTLAVVALFADGPTAIRDVASWRVKETERMVAIRTELTKLGASVEEGPDYCIITPPEKLNVTAIDTYDDHRMAMAFSLAACAEVPVTIRDPGCTRKTFPDYFDVLSTFVKN
**Q.** With B2 as the protein, how does the Km [2] read?
**A.** Its Km is 38.1 µM.

B3: Zea mays EPSPS variant L-T at positions 103-107 (Zea mays; P106T/T102L) (protein)
chain: MAGAEEIVLQPIKEISGTVKLPGSKSLSNRILLLAALSEGTTVVDNLLNSEDVHYMLGALRTLGLSVEADKAAKRAVVVGCGGKFPVEDAKEEVQLFLGNAGLAMRTLTAAVTAAGGNATYVLDGVPRMRERPIGDLVVGLKQLGADVDCFLGTDCPPVRVNGIGGLPGGKVKLSGSISSQYLSALLMAAPLALGDVEIEIIDKLISIPYVEMTLRLMERFGVKAEHSDSWDRFYIKGGQKYKSPKNAYVEGDASSASYFLAGAAITGGTVTVEGCGTTSLQGDVKFAEVLEMMGAKVTWTETSVTVTGPPREPFGRKHLKAIDVNMNKMPDVAMTLAVVALFADGPTAIRDVASWRVKETERMVAIRTELTKLGASVEEGPDYCIITPPEKLNVTAIDTYDDHRMAMAFSLAACAEVPVTIRDPGCTRKTFPDYFDVLSTFVKN
**Q.** For B3, which Km [3] is on record?
**A.** Its Km is 45.8 µM.

B4: Zea mays EPSPS variant L-A at positions 103-107 (Zea mays; P106A/T102L) (protein)
chain: MAGAEEIVLQPIKEISGTVKLPGSKSLSNRILLLAALSEGTTVVDNLLNSEDVHYMLGALRTLGLSVEADKAAKRAVVVGCGGKFPVEDAKEEVQLFLGNAGLAMRALTAAVTAAGGNATYVLDGVPRMRERPIGDLVVGLKQLGADVDCFLGTDCPPVRVNGIGGLPGGKVKLSGSISSQYLSALLMAAPLALGDVEIEIIDKLISIPYVEMTLRLMERFGVKAEHSDSWDRFYIKGGQKYKSPKNAYVEGDASSASYFLAGAAITGGTVTVEGCGTTSLQGDVKFAEVLEMMGAKVTWTETSVTVTGPPREPFGRKHLKAIDVNMNKMPDVAMTLAVVALFADGPTAIRDVASWRVKETERMVAIRTELTKLGASVEEGPDYCIITPPEKLNVTAIDTYDDHRMAMAFSLAACAEVPVTIRDPGCTRKTFPDYFDVLSTFVKN
**Q.** With B4 as the protein, how does the Km [4] read?
**A.** Its Km is 50.6 µM.

B5: Zea mays EPSPS variant G-W at positions 103-107 (EPSPS-TGPW; T103G P107W) (Zea mays; P106W/T102G) (protein)
chain: MAGAEEIVLQPIKEISGTVKLPGSKSLSNRILLLAALSEGTTVVDNLLNSEDVHYMLGALRTLGLSVEADKAAKRAVVVGCGGKFPVEDAKEEVQLFLGNAGGAMRWLTAAVTAAGGNATYVLDGVPRMRERPIGDLVVGLKQLGADVDCFLGTDCPPVRVNGIGGLPGGKVKLSGSISSQYLSALLMAAPLALGDVEIEIIDKLISIPYVEMTLRLMERFGVKAEHSDSWDRFYIKGGQKYKSPKNAYVEGDASSASYFLAGAAITGGTVTVEGCGTTSLQGDVKFAEVLEMMGAKVTWTETSVTVTGPPREPFGRKHLKAIDVNMNKMPDVAMTLAVVALFADGPTAIRDVASWRVKETERMVAIRTELTKLGASVEEGPDYCIITPPEKLNVTAIDTYDDHRMAMAFSLAACAEVPVTIRDPGCTRKTFPDYFDVLSTFVKN
**Q.** With B5 as the protein, how does the Km [5] read?
**A.** The Km was 82.2 µM.
